Test results as given in publication PMC6829862.

Target: mCherry–Gβ1γ9 dimer (UniProt P62873)
Assay: FRET or BRET; FLIM-FRET in living transiently transfected HEK 293 cells at 37 °C; donor Citrine in Gα, acceptor mCherry on Gβ1 with the appropriate Gγ; efficiency E = 1 − τda/τd from the short lifetime component τ1 (donor alone 2.7 ± 0.1 ns), analysed only at the plasma membrane; GppNHp added to the culture did not change the signal

Sequence of Citrine–Gαi3 (P08754 whole entry): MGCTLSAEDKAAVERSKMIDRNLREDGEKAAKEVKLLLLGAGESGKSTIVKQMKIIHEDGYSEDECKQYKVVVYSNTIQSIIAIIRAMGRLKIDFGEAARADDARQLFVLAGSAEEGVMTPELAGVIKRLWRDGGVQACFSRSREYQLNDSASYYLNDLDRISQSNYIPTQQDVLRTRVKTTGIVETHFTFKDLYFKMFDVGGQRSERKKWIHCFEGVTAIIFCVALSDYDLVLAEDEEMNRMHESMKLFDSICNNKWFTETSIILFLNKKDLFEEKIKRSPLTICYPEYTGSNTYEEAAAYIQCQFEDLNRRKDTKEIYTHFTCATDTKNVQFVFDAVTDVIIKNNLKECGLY

FRET efficiency, lower than that of m3 with m4 by: 5%
Substance: Citrine–Gαi3 (from UniProt P08754 1-354) (natural protein)
